System: peptide library, one residue held at a place counted from the S/T acceptor
Assay: relative phosphorylation of the sub-library (ratio to the mean residue at this position); higher = residue favoured
Settings: human
In short: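 Relative sub-library phosphorylation is a ratio to the mean residue at the same position. Purified recombinant kinases were incubated under kinase-specific conditions with biotinylated degenerate peptide sub-libraries, each fixing one residue at one position around a central Ser/Thr, using 50 μM peptide and 50 μM ATP spiked with γ-32P-ATP for 90 min. Spots captured on streptavidin membranes were phosphorimaged and quantified by densitometry.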

Sequence of ROCK1, construct: aa1-535 (Q13464 1-535, looked up): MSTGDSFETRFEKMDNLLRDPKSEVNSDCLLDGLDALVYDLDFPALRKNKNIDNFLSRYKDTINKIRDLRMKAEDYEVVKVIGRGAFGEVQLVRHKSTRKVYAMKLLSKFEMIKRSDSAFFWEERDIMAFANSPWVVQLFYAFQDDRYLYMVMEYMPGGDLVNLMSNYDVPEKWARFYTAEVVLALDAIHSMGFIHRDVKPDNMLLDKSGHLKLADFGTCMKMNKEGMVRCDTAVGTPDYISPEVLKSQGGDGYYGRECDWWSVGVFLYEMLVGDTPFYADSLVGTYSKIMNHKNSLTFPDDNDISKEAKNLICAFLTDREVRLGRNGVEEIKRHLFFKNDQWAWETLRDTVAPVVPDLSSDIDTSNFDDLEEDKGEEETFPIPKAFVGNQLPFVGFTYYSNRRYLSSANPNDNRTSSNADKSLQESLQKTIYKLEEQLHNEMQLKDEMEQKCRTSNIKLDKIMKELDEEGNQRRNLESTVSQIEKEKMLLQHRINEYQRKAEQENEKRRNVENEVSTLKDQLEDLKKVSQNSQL

DYRK3, construct: Full length (from UniProt O43781)
relative phosphorylation
Settings	at +1	at +2	at +3	at +4	at -1	at -2	at -3	at -4	at -5
A fixed	0.74	0.843	0.891	0.767	1.14	1.24	0.635	0.856	0.845
D fixed	0.16	0.894	0.621	0.723	0.447	0.181	0.404	0.698	0.663
E fixed	0.175	0.758	0.613	0.713	0.554	0.207	0.368	0.747	0.656
F fixed	0.266	1.19	1.12	1.31	0.777	0.378	0.422	0.876	1.07
G fixed	0.732	0.679	1.47	1.07	1.13	0.719	1.59	1.01	0.936
H fixed	0.3	1.2	1.27	1.16	0.991	0.556	0.621	0.945	1.12
I fixed	0.513	1.33	0.817	0.973	0.709	0.643	0.418	0.905	1.05
K fixed	0.494	0.7	0.727	0.926	1.42	0.746	0.92	1.1	1.11
L fixed	0.329	1.41	1.23	0.916	0.882	0.651	0.444	0.887	0.892
M fixed	0.337	1.41	1.21	1.35	1.22	0.67	0.467	0.903	0.84
N fixed	0.289	0.883	0.777	0.919	0.783	0.555	0.473	0.71	0.809
P fixed	8.02	0.703	1.93	0.889	1.27	1.93	0.514	0.886	0.898
Q fixed	0.442	0.889	0.834	0.932	1	0.583	0.518	0.688	0.742
R fixed	2.71	1.05	1.09	1.13	2.12	6.5	7.91	3.23	2.49
V fixed	0.987	1.1	0.661	0.785	0.726	0.724	0.357	0.664	0.716
W fixed	0.257	0.91	0.887	1.38	0.64	0.386	0.473	0.964	0.942
Y fixed	0.242	1.04	0.858	1.06	1.18	0.336	0.473	0.928	1.21
pThr fixed	0.328	1.44	0.549	0.977	0.353	0.349	0.492	0.812	0.954
pTyr fixed	0.363	0.759	0.769	0.815	0.735	0.287	0.542	0.74	1.15

ROCK1, construct: aa1-535 (from UniProt Q13464)
relative phosphorylation
Settings	at +1	at +2	at +3	at +4	at -1	at -2	at -3	at -4	at -5
A fixed	0.632	0.883	1.01	0.721	0.745	0.528	0.549	0.906	0.953
D fixed	0.366	0.412	0.54	0.674	0.384	0.203	0.219	0.44	0.454
E fixed	0.358	0.39	0.488	0.656	0.303	0.188	0.231	0.525	0.462
F fixed	0.758	0.678	1.11	1.13	0.579	0.42	0.343	0.653	0.703
G fixed	0.706	0.773	1.42	1.06	1.03	0.534	0.577	1.1	1.06
H fixed	0.963	1.13	1.23	1.15	1.23	1.12	1.35	1.15	1.19
I fixed	1.43	1.13	0.81	0.866	0.52	0.268	0.28	0.532	0.603
K fixed	1.1	1.6	1.08	1.35	2.43	2.69	2.63	2.22	2.44
L fixed	1.57	1.2	1.01	1.06	1.02	0.359	0.316	0.571	0.495
M fixed	1.64	0.968	0.913	0.999	1.06	0.448	0.352	0.732	0.586
N fixed	1.38	0.854	0.988	1.15	1.14	0.906	0.575	0.89	0.878
P fixed	0.224	0.727	1.15	0.994	0.816	0.43	0.412	0.891	0.931
Q fixed	1.33	0.866	0.897	1.12	1.11	0.842	0.703	0.88	0.83
R fixed	2.22	2.27	1.34	1.37	2.27	6.35	7.13	3.19	3.2
V fixed	0.969	1.26	0.818	0.709	0.648	0.317	0.293	0.657	0.672
W fixed	0.704	0.808	1.16	1.07	0.673	0.774	0.562	0.885	0.759
Y fixed	0.648	1.05	1.03	0.927	1.05	0.623	0.485	0.777	0.778
pThr fixed	0.432	0.607	0.507	0.658	0.315	0.378	0.392	0.712	0.745
pTyr fixed	0.477	0.576	0.731	0.674	0.525	0.329	0.407	0.625	0.817

PKN1, construct: aa460-982 (from UniProt Q16512)
relative phosphorylation
Settings	at +1	at +2	at +3	at +4	at -1	at -2	at -3	at -4	at -5
A fixed	0.528	0.745	0.906	1	1.03	1.13	0.67	1.01	0.865
D fixed	0.183	0.162	0.281	0.393	0.581	0.2	0.126	0.354	0.262
E fixed	0.171	0.149	0.352	0.372	0.509	0.254	0.14	0.536	0.256
F fixed	4.71	0.739	1.14	0.743	1.03	0.85	0.456	1.06	1.19
G fixed	0.361	0.397	0.783	0.98	1	0.777	0.412	1.14	0.789
H fixed	0.564	1.34	1.02	1.22	1.22	1.16	0.907	1.03	0.761
I fixed	1.26	0.785	1.04	0.753	0.535	0.557	0.407	0.88	1.6
K fixed	0.784	2.16	1.46	2.04	1.53	2	2	1.73	1.2
L fixed	1.13	1.1	1.06	0.794	0.973	0.638	0.455	0.922	1.84
M fixed	2.16	0.896	1.06	0.819	1.05	0.89	0.483	1.07	0.967
N fixed	0.483	0.575	0.629	0.929	1.16	0.926	0.315	0.717	0.49
P fixed	0.266	0.297	0.493	1.4	1.16	0.347	0.328	0.59	0.921
Q fixed	0.62	0.578	0.736	0.996	0.947	1.05	0.585	0.842	0.643
R fixed	0.999	4.44	2	1.86	1.51	3.36	8.17	2.01	1.61
V fixed	0.852	0.749	1.02	0.678	0.622	0.781	0.373	0.991	1.55
W fixed	0.889	0.675	1.5	1.15	0.9	1.1	0.58	0.992	0.926
Y fixed	1.04	1.22	1.53	0.87	1.24	0.978	0.6	1.13	1.14
pThr fixed	0.476	0.43	0.412	0.443	0.302	0.296	0.259	0.551	0.368
pTyr fixed	0.314	0.354	0.567	0.384	0.388	0.266	0.215	0.412	0.514

Reference: the supplement of paper PMC9876800
